The target in series [1] is SmAP2, NT-647 labelled (Sulfolobus solfataricus, UniProt Q980S8 1-87). As to the kind of experiment: MST.
The target of series [2] is SmAP2 T40H (Sulfolobus solfataricus, UniProt Q980S8 1-87, T40H). Kind of series: EMSA.
The target of series [3] is T1, SmAP2 (Sulfolobus solfataricus, UniProt Q980S8 1-87). Kind of series: MST.
Series [4] addresses T2, SmAP1 (Sulfolobus solfataricus, UniProt Q97ZQ0 1-79).
T2 sequence: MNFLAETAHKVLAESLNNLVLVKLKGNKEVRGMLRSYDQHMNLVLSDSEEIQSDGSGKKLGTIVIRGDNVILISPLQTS
As to the kind of experiment: EMSA.

Series [5] deals with T1, SmAP2. As to the kind of experiment: MST. The source holds these as a separate data set.

Like-named read-outs stand apart in the source and are kept apart here.

B1: SmAP2-cRBM (ssRNA)
RNA: GGAUGGAUAUUAGGAAAUG
The term Kd denotes the equilibrium constant for the complex coming apart. As to B1, binding in series [1] was characterised by a dissociation constant (Kd) of 42.1 ± 17.8 nM.

B2: SmAP2-cRBM, FAM (ssRNA)
RNA: GGAUGGAUAUUAGGAAAUG
As for B2, the binding result in series [2] and in series [4] was “no binding” in each case. Moreover, in series [3], the Kd worked out at 32.7 ± 14.4 nM.

B3: 2194-RBM (ssRNA)
RNA: GGAGAUAUAGUAGGAUAG
For B3, binding in series [5] was put at a Kd of 14.4 ± 3.3 nM.

B4: 1742-RBM (ssRNA)
RNA: GGAUGGAUAUUAGGUACUGGG
B4 had a dissociation constant (Kd) in series [5] of 5.9 ± 5.5 nM.

B5: poly(U)15 (ssRNA)
RNA: UUUUUUUUUUUUUUU
As for B5, in series [1], the affinity, expressed as Kd, was 426 ± 92 nM.

These data come from paper PMC5587771.
